Target: biotin-labeled soluble FcRn
Experiment: FcRn ELISA pH 6.0

Substance	FcRn pH6.0 (% of wild type)
anti-CD20 IgG1 S254Q (antibody)	9
anti-CD20 IgG1 S254T (antibody)	32
anti-CD20 IgG1 S254V (antibody)	31
anti-CD20 IgG1 S267G (antibody)	86
anti-CD20 IgG1 S267I (antibody)	83
anti-CD20 IgG1 S304E (antibody)	101
anti-CD20 IgG1 S424V (antibody)	57
anti-CD20 IgG1 S426D (antibody)	65
anti-CD20 IgG1 S426L (antibody)	117
anti-CD20 IgG1 S440A (antibody)	82
anti-CD20 IgG1 S440E (antibody)	73
anti-CD20 IgG1 S440F (antibody)	87
anti-CD20 IgG1 S440I (antibody)	96
anti-CD20 IgG1 S440M (antibody)	80
anti-CD20 IgG1 S440R (antibody)	88
anti-CD20 IgG1 S440T (antibody)	71
anti-CD20 IgG1 S440W (antibody)	85
anti-CD20 IgG1 S442K (antibody)	138
anti-CD20 IgG1 T250M (antibody)	165
anti-CD20 IgG1 T250R (antibody)	62
anti-CD20 IgG1 T256E (antibody)	339
anti-CD20 IgG1 T256F (antibody)	5
anti-CD20 IgG1 T256G (antibody)	162
anti-CD20 IgG1 T256H (antibody)	26
anti-CD20 IgG1 T256I (antibody)	72
anti-CD20 IgG1 T256L (antibody)	78
anti-CD20 IgG1 T256N (antibody)	229

The remaining lines, values ahead:

FcRn pH6.0 (% of wild type)	Substance
8	anti-CD20 IgG1 S254N (antibody)
3	anti-CD20 IgG1 S254P (antibody)
14	anti-CD20 IgG1 S254R (antibody)
0	anti-CD20 IgG1 S254W (antibody)
0	anti-CD20 IgG1 S254Y (antibody)
86	anti-CD20 IgG1 S267H (antibody)
102	anti-CD20 IgG1 S267K (antibody)
595	anti-CD20 IgG1 S375R (antibody)
97	anti-CD20 IgG1 S424H (antibody)
60	anti-CD20 IgG1 S424M (antibody)
72	anti-CD20 IgG1 S440D (antibody)
101	anti-CD20 IgG1 S440G (antibody)
110	anti-CD20 IgG1 S440H (antibody)
132	anti-CD20 IgG1 S440K (antibody)
126	anti-CD20 IgG1 S440L (antibody)
82	anti-CD20 IgG1 S440N (antibody)
81	anti-CD20 IgG1 S440Q (antibody)
98	anti-CD20 IgG1 S440V (antibody)
100	anti-CD20 IgG1 S440Y (antibody)
96	anti-CD20 IgG1 T250K (antibody)
160	anti-CD20 IgG1 T256A (antibody)
544	anti-CD20 IgG1 T256D (antibody)
31	anti-CD20 IgG1 T256K (antibody)
35	anti-CD20 IgG1 T256M (antibody)
